We go through two molecules from patent US20250188179A1 (ADAGENE PTE, published 2025).

Experiment [1] concerns the target T1, full-length human CD137 with C-terminal 3xMyc tag displayed on yeast cells (human, UniProt Q07011 24-255).
T1 construct: whole, on cells; not used; also called hCD137; not shown: C-terminal 3xMyc tag
The experiment can be described thus: FACS titration on yeast displaying full-length hCD137-3xMyc, no protease; data batch 4.

For experiment [2], the target named is T2, hCD137 (antigen of the ELISA and FACS assays of Example 2) (human, UniProt Q07011 24-186, limits assumed).
T2 construct: also called human CD137
The experiment can be described thus: ELISA on hCD137, absorbance at 450 nm; masked antibody without MMP9 treatment. In general terms: An ELISA detects its analyte on a solid surface through an enzyme-linked reagent.

For experiment [3], the target named is T1, full-length human CD137 with C-terminal …. In words: KD divided by KD of parental antibody (TY21242 or TY23310); FACS on yeast hCD137; data batch 4.
Experiment [4] addresses T2, hCD137 (antigen of the ELISA and FACS …). The experiment can be described thus: FACS-based assay on hCD137.
The target is the same in experiment [5]. The experiment can be described thus: ELISA on hCD137.
Experiment [6] shares this target. The experiment can be described thus: FACS KD relative to parental antibody TY24122.
In experiment [7] the target is T3, His-tagged recombinant human FcγRIIb (human, UniProt P31994 46-217, limits assumed).
T3 construct: His-tagged; also called hFcγRIIb
T3 sequence (looked up): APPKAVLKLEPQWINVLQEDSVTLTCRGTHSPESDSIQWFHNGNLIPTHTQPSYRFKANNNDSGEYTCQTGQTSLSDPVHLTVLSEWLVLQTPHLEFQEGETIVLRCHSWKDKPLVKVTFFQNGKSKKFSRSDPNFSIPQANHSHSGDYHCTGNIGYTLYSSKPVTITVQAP
In words: BLI (Fortebio), His-tagged FcγR captured on anti-Penta-His sensor, antibody in solution, steady state analysis. (In general: Biolayer interferometry detects binding as a change in optical thickness at a sensor tip.)

In experiment [8] the target is T4, His-tagged recombinant human FcγRIIa (human, UniProt P12318 36-218, limits assumed).
T4 construct: His-tagged; also called hFcγRIIa
T4 sequence (looked up): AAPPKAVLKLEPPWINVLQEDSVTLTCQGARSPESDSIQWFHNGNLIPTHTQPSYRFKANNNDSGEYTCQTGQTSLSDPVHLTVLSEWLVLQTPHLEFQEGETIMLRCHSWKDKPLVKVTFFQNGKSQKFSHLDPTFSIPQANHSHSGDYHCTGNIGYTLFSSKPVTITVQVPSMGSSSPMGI
The experiment is described as above.

Experiment [9] deals with T2, hCD137 (antigen of the ELISA and FACS …). The experiment can be described thus: ELISA EC50 relative to parental antibody TY24122.

B1: TY25366 (antibody, human IgG4 S228P, kappa)
heavy: EVQLVESGGGLVQPGGSLRLSCAASGFSLSTGGVGVGWIRQAPGKGLEWLALIDWADDKYYSPSLKSRLTISRDNSKNTLYLQLNSLRAEDTAVYYCARGGSDTVIGDWFAYWGQGTLVTVSSASTKGPSVFPLAPCSRSTSESTAALGCLVKDYFPEPVTVSWNSGALTSGVHTFPAVLQSSGLYSLSSVVTVPSSSLGTKTYTCNVDHKPSNTKVDKRVESKYGPPCPPCPAPEFLGGPSVFLFPPKPKDTLMISRTPEVTCVVVDVEQEDPEVQFNWYVDGVEVHNAKTKPREEQFNSTYRVVSVLTVLHQDWLNGKEYKCKVSNKGFPSSIEKTISKAKGQPREPQVYTLPPSQEEMTKNQVSLTCLVKGFYPSDIAVEWESNGQPENNYKTTPPVLDSDGSFFLYSRLTVDKSRWQEGNVFSCSVMHEALHNHYTQKSLSLSLGK
light: not shown
notes: also called untreated TY25366
With B1, the equilibrium dissociation constant (Kd) – broadly, the free concentration of one partner at which half of the binding sites on the other are occupied at equilibrium, for simple one-to-one binding – in experiment [1] is 64.6 nM. In addition, the concentration for a half-maximal effect (EC50 (read off the curve)) (usually the concentration at which the effect is half-maximal) in [2] was roughly 10 nM. Also, the Masking efficiency in experiment [3] was 324 fold.

B2: TY24122 (antibody, human IgG4 S228P, kappa)
heavy: B1 heavy
light: not shown
B2: the dissociation constant (Kd) is 0.141 nM in [4], 5.06 nM in experiment [7] and 5.85 nM in [8]. The response in [5] was half-maximal at 0.31 nM (EC50). In addition, the Masking efficiency in experiment [6] and in [9] was 1 fold throughout.
